# In patent publication US20230097015A1 (SEOUL NATIONAL UNIVERSITY R AND DB FOUNDATION, published 2023):
# T1: MlnC COM^A-AAL
# T1 chain: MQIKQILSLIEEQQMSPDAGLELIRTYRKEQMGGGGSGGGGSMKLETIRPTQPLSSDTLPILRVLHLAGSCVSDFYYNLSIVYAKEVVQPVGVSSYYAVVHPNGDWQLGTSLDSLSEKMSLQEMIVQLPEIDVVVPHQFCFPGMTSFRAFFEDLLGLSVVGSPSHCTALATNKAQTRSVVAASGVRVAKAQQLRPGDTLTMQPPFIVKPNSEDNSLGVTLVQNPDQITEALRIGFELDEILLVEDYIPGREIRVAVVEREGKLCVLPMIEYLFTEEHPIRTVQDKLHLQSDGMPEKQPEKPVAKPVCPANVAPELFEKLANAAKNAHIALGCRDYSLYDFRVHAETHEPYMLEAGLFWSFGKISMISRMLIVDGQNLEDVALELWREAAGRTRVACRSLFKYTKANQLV
# T2: 4CL-MlnB COM^D (Bacillus amyloliquefaciens, UniProt Q42524 1-561)
# T2 construct: Unlabelled protein as used in SEC/native PAGE and in the two-step naringenin reaction; also called 4-coumarate-CoA ligase fused to MlnB COM donor domain; not shown: N-terminal His-tag from pET15b vector
# T2 sequence: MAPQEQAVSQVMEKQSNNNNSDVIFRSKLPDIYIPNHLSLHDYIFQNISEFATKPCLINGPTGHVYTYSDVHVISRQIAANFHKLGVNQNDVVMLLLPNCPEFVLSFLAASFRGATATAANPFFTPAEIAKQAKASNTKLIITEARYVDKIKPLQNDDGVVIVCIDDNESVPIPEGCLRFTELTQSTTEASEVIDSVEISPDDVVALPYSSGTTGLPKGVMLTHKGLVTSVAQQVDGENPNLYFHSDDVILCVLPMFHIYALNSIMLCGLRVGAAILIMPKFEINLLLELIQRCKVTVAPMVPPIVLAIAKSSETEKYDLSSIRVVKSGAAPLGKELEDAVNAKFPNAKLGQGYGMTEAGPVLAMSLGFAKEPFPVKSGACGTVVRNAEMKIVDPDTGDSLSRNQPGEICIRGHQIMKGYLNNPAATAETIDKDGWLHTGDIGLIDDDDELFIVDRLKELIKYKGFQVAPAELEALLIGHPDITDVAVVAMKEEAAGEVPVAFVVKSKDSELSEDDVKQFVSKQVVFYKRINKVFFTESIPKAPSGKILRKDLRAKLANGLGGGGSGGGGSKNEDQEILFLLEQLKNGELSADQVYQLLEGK
# T3: Cy3-labeled 4CL-MlnB COM^D (Bacillus amyloliquefaciens, UniProt Q42524 1-561, Cy3-NHS ester linked to naturally occurring lysine residues (positions not stated))
# T3 construct: Dye-labelled form used in the three-channel FRET analysis; also called 4CL-MlnB COMD labeled with Cy3; not shown: N-terminal His-tag from pET15b vector
# T3 sequence: T2 sequence
# B1: MlnB COM^D-CNL (protein)
# chain: KNEDQEILFLLEQLKNGELSADQVYQLLEGKGGGSMAQSISLSLPQSTTPSKGVRLKIAALLKTIGTLILLLIALPLNALIVLISLMCRPFTKKPAVATHPQNILVSGGKMTKALQLARSFHAAGHRVILIEGHKYWLSGHRFSNSVSRFYTVPAPQDDPEGYTQALLEIVKREKIDVYVPVCSPVASYYDSLAKSALSEYCEVFHFDADITKMLDDKFAFTDRARSLGLSAPKSFKITDPEQVINFDFSKETRKYILKSISYDSVRRLNLTKLPCDTPEETAAFVKSLPISPEKPWIMQEFIPGKELCTHSTVRDGELRLHCCSNSSAFQINYENVENPQIQEWVQHFVKSLRLTGQISLDFIQAEDGTAYAIECNPRTHSAITMFYNHPGVAEAYLGKTPLAAPLEPLADSKPTYWIYHEIWRLTGIRSGQQLQTWFGRLVRGTDAIYRLDDPIPFLTLHHWQITLLLLQNLQRLKGWVKIDFNIGKLVELGGD
# B2: MlnC COM^A-CHS (enzyme)
# chain: MQIKQILSLIEEQQMSPDAGLELIRTYRKEQMGGGGSGGGGSGGGGSMVTVEEYRKAQRAEGPATVMAIGTATPSNCVDQSTYPDFYFRITNSEHKTDLKEKFKRMCEKSMIKKRYMHLTEEILKENPSMCEYMAPSLDARQDIVVVEVPKLGKEAAQKAIKEWGQPKSKITHLVFCTTSGVDMPGCDYQLTKLLGLRPSVKRLMMYQQGCFAGGTVLRLAKDLAENNKGARVLVVCSEITAVTFRGPNDTHLDSLVGQALFGDGAGAIIIGSDPIPGVERPLFELVSAAQTLLPDSHGAIDGHLREVGLTFHLLKDVPGLISKNIEKSLEEAFKPLGISDWNSLFWIAHPGGPAILDQVEIKLGLKPEKLKATRNVLSNYGNMSSACVLFILDEMRKASAKEGLGTTGEGLEWGVLFGFGPGLTVETVVLHSVAT
# notes: Unlabelled protein as used in SEC/native PAGE and in the two-step naringenin reaction; also called chalcone synthase fused to MlnC COM acceptor domain; not shown: C-terminal His-tag from pET21c vector
# B3: Cy5-labeled MlnC COM^A-CHS (enzyme)
# chain: B2 chain
# modifications: Cy5-NHS ester linked to naturally occurring lysine residues (positions not stated)
# notes: Dye-labelled form used in the three-channel FRET analysis; also called MlnC COMA-CHS labeled with Cy5; not shown: C-terminal His-tag from pET21c vector
# Assays:
# [1] = biological target: T1, MlnC COM^A-AAL
# [2] = biological target: T2, 4CL-MlnB COM^D; test: analytical SEC-FPLC of a 1:1 mixture and native PAGE
# [3] = biological target: T3, Cy3-labeled 4CL-MlnB COM^D; test: Cy3/Cy5 FRET, three channels
binder,measurement,setting,value
B1,"shinorine production in Saccharomyces cerevisiae (HPLC), against free or singly fused CNL and AAL",[1],shinorine production increased by about 1.3 times
B2,binding result,[2],binds
B3,binding result,[3],binds
